Biological target: FLAG-Synoviolin (UniProt Q86TM6 1-617, limits assumed)
Test: cell-based or functional assay

Sequence of FLAG-Synoviolin (Q86TM6 whole entry): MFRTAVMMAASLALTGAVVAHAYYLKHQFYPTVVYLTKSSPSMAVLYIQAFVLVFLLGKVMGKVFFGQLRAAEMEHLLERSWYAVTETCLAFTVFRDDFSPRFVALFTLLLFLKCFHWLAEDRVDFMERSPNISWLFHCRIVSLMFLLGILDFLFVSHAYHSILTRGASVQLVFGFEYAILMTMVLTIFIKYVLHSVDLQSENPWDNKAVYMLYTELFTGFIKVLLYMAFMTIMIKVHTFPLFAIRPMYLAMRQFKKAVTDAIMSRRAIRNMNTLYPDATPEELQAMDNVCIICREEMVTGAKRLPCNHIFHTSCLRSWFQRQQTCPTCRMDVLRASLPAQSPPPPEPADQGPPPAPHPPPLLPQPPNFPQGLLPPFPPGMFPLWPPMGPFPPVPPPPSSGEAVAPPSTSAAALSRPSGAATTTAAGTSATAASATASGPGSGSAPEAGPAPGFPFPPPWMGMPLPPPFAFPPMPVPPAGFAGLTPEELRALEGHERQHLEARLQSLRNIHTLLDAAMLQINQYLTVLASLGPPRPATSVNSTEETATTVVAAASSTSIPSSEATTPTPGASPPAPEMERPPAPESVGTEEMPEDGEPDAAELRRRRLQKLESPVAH

B1: SP-HA-hsHRD3B (SEL1L/hsHRD3 with an HA-tag inserted immediately after the signal peptide) (other, not shown: small tags and cut ends)
chain: GSQDESLDSKTTLTSDESVKDHTTAGRVVAGQIFLDSEESELESSIQEEEDSLKSQEGESVTEDISFLESPNPENKDYEEPKKVRKPALTAIEGTAHGEPCHFPFLFLDKEYDECTSDGREDGRLWCATTYDYKADEKWGFCETEEEAAKRRQMQEAEMMYQTGMKILNGSNKKSQKREAYRYLQKAASMNHTKALERVSYALLFGDYLPQNIQAAREMFEKLTEEGSPKGQTALGFLYASGLGVNSSQAKALVYYTFGALGGNLIAHMVLGYRYWAGIGVLQSCESALTHYRLVANHVASDISLTGGSVVQRIRLPDEVENPGMNSGMLEEDLIQYYQFLAEKGDVQAQVGLGQLHLHGGRGVEQNHQRAFDYFNLAANAGNSHAMAFLGKMYSEGSDIVPQSNETALHYFKKAADMGNPVGQSGLGMAYLYGRGVQVNYDLALKYFQKAAEQGWVDGQLQLGSMYYNGIGVKRDYKQALKYFNLASQGGHILAFYNLAQMHASGTGVMRSCHTAVELFKNVCERGRWSERLMTAYNSYKDGDYNAAVIQYLLLAEQGYEVAQSNAAFILDQREASIVGENETYPRALLHWNRAASQGYTVARIKLGDYHFYGFGTDVDYETAFIHYRLASEQQHSAQAMFNLGYMHEKGLGIKQDIHLAKRFYDMAAEASPDAQVPVFLALCKLGVVYFLQYIRETNIRDMFTQLDMDQLLGPEWDLYLMTIIALLLGTVIAYRQRQHQDMPAPRPPGPRPAPPQQEGPPEQQPPQ
- half-life of SEL1L/hsHRD3 (cycloheximide chase, Western blotting), in the absence of Synoviolin: 1.8 h
- half-life of SEL1L/hsHRD3 (cycloheximide chase, Western blotting), with FLAG-Synoviolin co-expressed: 4.3 h
